One series deals with T1, NEQ395 (Nanoarchaeum equitans, UniProt Q74N22).
T1 sequence (Q74N22 1-393): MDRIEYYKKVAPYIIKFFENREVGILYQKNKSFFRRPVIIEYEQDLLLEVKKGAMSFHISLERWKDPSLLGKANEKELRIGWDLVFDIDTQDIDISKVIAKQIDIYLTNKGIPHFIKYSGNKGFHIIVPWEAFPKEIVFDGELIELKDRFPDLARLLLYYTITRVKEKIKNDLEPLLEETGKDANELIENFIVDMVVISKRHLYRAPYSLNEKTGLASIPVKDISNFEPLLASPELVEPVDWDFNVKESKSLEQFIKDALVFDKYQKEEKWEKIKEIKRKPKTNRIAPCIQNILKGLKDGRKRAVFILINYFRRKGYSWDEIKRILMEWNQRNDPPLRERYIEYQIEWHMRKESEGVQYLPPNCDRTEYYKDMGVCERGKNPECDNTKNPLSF
The series can be described thus: RP-HPLC primase assay with omission of single rNTPs. The class given is biochemical. Particulars: pH 6.5, 70°C.

In series [1] the target is T2, NEQ395 DNA primase (monomeric PriS-PriL) (Nanoarchaeum equitans, UniProt Q74N22 1-393).
T2 sequence: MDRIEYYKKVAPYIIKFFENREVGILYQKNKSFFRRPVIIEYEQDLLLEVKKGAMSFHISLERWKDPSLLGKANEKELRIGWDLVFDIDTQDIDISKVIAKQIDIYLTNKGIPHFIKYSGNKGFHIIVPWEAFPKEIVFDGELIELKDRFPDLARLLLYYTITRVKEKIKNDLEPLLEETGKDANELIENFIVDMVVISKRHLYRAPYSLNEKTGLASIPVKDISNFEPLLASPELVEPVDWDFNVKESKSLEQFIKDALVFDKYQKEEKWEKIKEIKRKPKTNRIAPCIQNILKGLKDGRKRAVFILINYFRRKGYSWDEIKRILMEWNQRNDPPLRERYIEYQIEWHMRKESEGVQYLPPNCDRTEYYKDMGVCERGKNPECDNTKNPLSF
The series can be described thus: fluorescence anisotropy. In general terms: In fluorescence polarisation assays a small probe gives low polarisation when free and higher when bound to something large.

Series [2] addresses T2, NEQ395 DNA primase (monomeric PriS-PriL). The series can be described thus: fluorescence anisotropy. The source holds these as a separate data set.
For series [3] the target is unchanged. The series can be described thus: fluorescence anisotropy. This is another data set of the same source.

Read-outs that look alike come from different tables or passages of the source.

For orientation: Kd means a measure of binding affinity in units of concentration.

Consider `Nc1ncnc2c1ncn2[C@@H]1O[C@H](COP(=O)(O)OP(=O)(O)OP(=O)(O)O)[C@@H](O)[C@H]1O` [ATP], for which, on NEQ395 (initiating nucleotide, ssDNA template Fid1-4, Mn2+), the “RP-HPLC primase assay with omission of single rNTPs” value is given as “using an rNTP mix without ATP (the first cognate base needed for synthesis) did not initiate”.
Consider `Nc1nc2c(ncn2[C@@H]2O[C@H](COP(=O)(O)OP(=O)(O)OP(=O)(O)O)[C@@H](O)[C@H]2O)c(=O)[nH]1` [GTP], for which, on NEQ395 (elongating nucleotide, ssDNA template Fid2, Mn2+), the “RP-HPLC primase assay with omission of single rNTPs” value was “In presence of GTP, extension to the full-length primers occurs”.
TGTAAAACGACGGCCAGT (ssDNA) [t18] had a dissociation constant Kd in series [1] of 510 nM.
In the case of CTATACTCA (ssDNA) [t9], the Kd amounted to 580 nM in series [2] and 1060 nM in series [3].

B1: t18_ds (dsDNA)
DNA 1: TGTAAAACGACGGCCAGT
DNA 2: ACTGGCCGTCGTTTTACA
In the case of B1, in series [1], the Kd was 650 nM.
As to CTGTGCTCA (ssDNA) [t9-ATA (lacks ATA)], in series [3], the Kd was 2870 nM.

The values above are taken from publication PMC10250227 (Nucleic Acids Research, 2023).
